Laboratory results reported in US20250026792A1, “SELF-ASSEMBLING PEPTIDES WITH HYALURONIC ACID BINDING DOMAINS AND METHODS OF USE THEREOF” (Northwestern University, priority 2022, published 2025).
Entries after “also recorded” stand apart in the source; their conditions may differ. The star is where a group is joined. Biotin = O=C1N[C@H]2[C@H](CS[C@H]2CCCCC(=O)*)N1

B1: Peptide 7c (peptide)
peptide: Biotin-KTKATVKIKNKQKSVNALKQKIVLLSK-OH
SMILES: CC[C@H](C)[C@H](NC(=O)[C@H](CCCCN)NC(=O)[C@@H](NC(=O)[C@@H](NC(=O)[C@H](C)NC(=O)[C@H](CCCCN)NC(=O)[C@@H](NC(=O)[C@H](CCCCN)NC(=O)CCCC[C@@H]1SC[C@@H]2NC(=O)N[C@@H]21)[C@@H](C)O)[C@@H](C)O)C(C)C)C(=O)N[C@@H](CCCCN)C(=O)N[C@@H](CC(N)=O)C(=O)N[C@@H](CCCCN)C(=O)N[C@@H](CCC(N)=O)C(=O)N[C@@H](CCCCN)C(=O)N[C@@H](CO)C(=O)N[C@H](C(=O)N[C@@H](CC(N)=O)C(=O)N[C@@H](C)C(=O)N[C@@H](CC(C)C)C(=O)N[C@@H](CCCCN)C(=O)N[C@@H](CCC(N)=O)C(=O)N[C@@H](CCCCN)C(=O)N[C@H](C(=O)N[C@H](C(=O)N[C@@H](CC(C)C)C(=O)N[C@@H](CC(C)C)C(=O)N[C@@H](CO)C(=O)N[C@@H](CCCCN)C(=O)O)C(C)C)[C@@H](C)CC)C(C)C
notes: Variant of 17x-3; biotinylated synthetic peptide
B2: Peptide BHP4 (peptide)
peptide: Biotin-TNLRNKYTFLARARANLAVRNKQNIKS-OH
SMILES: CC[C@H](C)[C@H](NC(=O)[C@H](CC(N)=O)NC(=O)[C@H](CCC(N)=O)NC(=O)[C@H](CCCCN)NC(=O)[C@H](CC(N)=O)NC(=O)[C@H](CCCNC(=N)N)NC(=O)[C@@H](NC(=O)[C@H](C)NC(=O)[C@H](CC(C)C)NC(=O)[C@H](CC(N)=O)NC(=O)[C@H](C)NC(=O)[C@H](CCCNC(=N)N)NC(=O)[C@H](C)NC(=O)[C@H](CCCNC(=N)N)NC(=O)[C@H](C)NC(=O)[C@H](CC(C)C)NC(=O)[C@H](Cc1ccccc1)NC(=O)[C@@H](NC(=O)[C@H](Cc1ccc(O)cc1)NC(=O)[C@H](CCCCN)NC(=O)[C@H](CC(N)=O)NC(=O)[C@H](CCCNC(=N)N)NC(=O)[C@H](CC(C)C)NC(=O)[C@H](CC(N)=O)NC(=O)[C@@H](NC(=O)CCCC[C@@H]1SC[C@@H]2NC(=O)N[C@@H]21)[C@@H](C)O)[C@@H](C)O)C(C)C)C(=O)N[C@@H](CCCCN)C(=O)N[C@@H](CO)C(=O)O
notes: Variant of BHP3; biotinylated synthetic peptide; also called BPH4

Tests used:
[1] = target: T1, elastin (Bos taurus, UniProt P04985); experiment: ECM specificity binding test, elastin coating; parameters: species or system bovine; settings: 5.0 mg/ml peptide, FIG. 4
T1 construct: purchased Sigma-Aldrich
T1 sequence (P04985 27-747): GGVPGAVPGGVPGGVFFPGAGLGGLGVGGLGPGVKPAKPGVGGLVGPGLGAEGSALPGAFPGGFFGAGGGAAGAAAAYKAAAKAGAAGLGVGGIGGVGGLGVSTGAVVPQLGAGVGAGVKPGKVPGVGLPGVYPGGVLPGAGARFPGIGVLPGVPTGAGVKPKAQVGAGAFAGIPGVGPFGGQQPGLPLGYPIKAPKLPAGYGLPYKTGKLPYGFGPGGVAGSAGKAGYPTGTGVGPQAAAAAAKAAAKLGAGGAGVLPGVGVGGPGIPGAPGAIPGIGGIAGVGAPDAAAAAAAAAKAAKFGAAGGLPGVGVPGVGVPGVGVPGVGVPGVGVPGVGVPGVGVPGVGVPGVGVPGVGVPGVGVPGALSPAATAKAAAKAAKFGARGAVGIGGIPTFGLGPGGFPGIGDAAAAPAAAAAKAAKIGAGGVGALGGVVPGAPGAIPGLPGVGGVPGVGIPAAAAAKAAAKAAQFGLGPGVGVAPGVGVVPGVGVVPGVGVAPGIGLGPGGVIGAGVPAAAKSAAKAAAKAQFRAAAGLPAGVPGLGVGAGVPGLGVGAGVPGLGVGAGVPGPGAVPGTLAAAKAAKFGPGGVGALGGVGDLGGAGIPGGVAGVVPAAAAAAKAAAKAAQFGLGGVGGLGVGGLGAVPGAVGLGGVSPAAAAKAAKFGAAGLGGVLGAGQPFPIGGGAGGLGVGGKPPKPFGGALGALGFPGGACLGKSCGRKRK
Description: (§1) Peptides were incubated 24 hours at 37° C. on collagens I-IV, elastin, hyaluronic acid, and Geltrex. Coatings (10 pig/cm^2) were previously dried overnight in milli-Q water. Overall significance was assessed using analysis of variance, with Tukey's multiple comparison post-hoc analysis between ECM groups where n=4.
Biotinylated peptides were custom synthesized by ABI Scientific, Inc. (Sterling, VA). Uranyl acetate and TEM grids were from Ted Pella, Inc (Redding, CA). Unless specified otherwise, all water used in these experiments was Milli-Q grade. HA (˜1 MDa), collagen types I (rat), II (chicken), III (human), and IV (mouse), elastin (bovine), deuterium oxide (D2O), acetic acid-d4, sodium acetate-d3, 3-(Trimethylsilyl)propionic-2,2,3,3-d6 (DSS-D6) acid sodium salt, and 2,2,2-trifluoroethanol (TFE) and were obtained from Sigma-Aldrich (St. Louis, MO). Streptavidin (Alexa Fluor 488 conjugate) and Geltrex were obtained from Thermo Fisher Scientific Inc. (Waltham, MA). Sodium hyaluronate (5 and 60 KDa) was purchased from Lifecore Biomedical LLC (Chaska, MN). In reference to terminology, N and C termini is used to describe the amino terminal (N) and the carboxyl terminal (C) of the peptide. The biotinylated peptides are used in every experiment.
(§2) Hyaluronic acid, collagens I, II, III, and IV, elastin, and Geltrex were coated onto 96-well black plates (medium binding affinity) at 10 μg/cm^2 and were dried in milli-Q water at room temperature. N-termini biotinylated peptides were added to coated plates at 0, 1, 2.5, 5 and 10 mg/ml overnight at 37° C. in phosphate buffered saline (PBS), pH 7.4, after which the plates were washed three times with PBS. Fluorescent streptavidin-488 (4 μg/mL) was added to each well and incubated at 37° C. temperature for 24 hours, then thoroughly washed with PBS. The plates were read with a fluorescence microplate reader for fluorescence intensity (Ex 490 nm, Em 525 nm). All data were normalized to the background fluorescence intensity of Streptavidin-488.

[2] = Transmission electron microscopy (TEM) of peptide nanostructures; type: physicochemical
Description: The sample and stain were filter-dried in between steps. Samples were collected 24 hours at 37° C. after 30 minutes of sonication. All TEM was performed on a Philips FEI Technai Spirit G2 electron microscope. Peptides were incubated in both PBS and SC.

[3] = Circular dichroism (CD) of peptides; type: physicochemical; settings: 20 mM Sodium Cacodylate; for Ellipticity ratio (222 nm/208 nm) / Ellipticity 208 nm / Ellipticity 222 nm: 1.25 mg/mL; for Ellipticity 208 nm / Ellipticity 222 nm: CD data given as [θ]M×10^−3; for wavelength Minimum of CD profile: 5.0 mg/mL
Description: Data is presented in ellipticity ([θ]M×10^−3) as a function of spectral wavelength (λ).
Sodium cacodylate (SC), 20 mM pH 7.4, without and with 20% TFE was used to reduce phosphate related background signal and enhance detected structures. Circular dichroism (CD) data were collected in millidegrees, 0, and converted to molar ellipticity, [θ]M, and are expressed in units of deg×cm^2×dmol^−1. Scan speeds and digital integration times were 500 nm/min and 1 second, respectively. The data on the Y axis of the CD plots is [θ]M×10^−3. […] Consequently, CD signals are reported in the 190-260 nm range.

[4] = test system: extracellular matrix (ECM) components: Collagen type I, II, III and IV, elastin, hyaluronic acid and Geltrex; experiment: ECM specificity binding test, whole panel; settings: 5.0 mg/ml peptide, FIG. 4
Description: as §1, §2

[5] = ECM specificity binding test, hyaluronic acid coating; settings: 5.0 mg/ml peptide, FIG. 4
Description: as §1, §2

[6] = Concentration-dependent peptide binding to hyaluronic acid coating (biotin-streptavidin fluorescence)
Description: Peptides were incubated 24 hours at 37° C. Coatings (10 μg/cm^2) were previously dried overnight in milli-Q water. Overall significance was assessed using analysis of variance, with Tukey's multiple comparison post-hoc analysis between 1-scrm and experimental groups where n=4.
N-termini biotinylated peptides were added to coated plates at 0, 1, 2.5, 5 and 10 mg/ml overnight at 37° C. in phosphate buffered saline (PBS), pH 7.4, after which the plates were washed three times with PBS.

[7] = target: T2, elastin (bovine) (bovine, UniProt P04985 27-747, limits assumed); experiment: plate assay: biotinylated peptide (5.0 mg/ml) on dried ECM coating, streptavidin-488 fluorescence
T2 construct: Coated and dried on plates at 10 ug/cm2
T2 sequence (looked up): T1 sequence (P04985 27-747)
Description: as §1, with “pig/cm²)” for “pig/cm^2)”
as §2, with “N-termini” for “Hyaluronic acid, collagens I, II, III, and IV, elastin, and Geltrex were coated onto 96-well black plates (medium binding affinity) at 10 μg/cm^2 and were dried in milli-Q water at room temperature. N-termini”

Row | Molecule | binding to elastin [1] | TEM characterization, Phosphate Buffered Saline (i) ([2]; PBS pH 7.4, 0.5% w/v, 30 minutes sonication, 24 hrs at 37° C.) | nanofiber formation in TEM, overall ([2]; both PBS and sodium cacodylate) | Ellipticity ratio (222 nm/208 nm) [3] | Ellipticity 208 nm [3] | Ellipticity 222 nm [3] | wavelength Minimum of CD profile [3] [nm] | Ellipticity ratio (222 nm/208 nm) ([3]; 20% TFE) | Ellipticity 208 nm ([3]; 20% TFE) | Ellipticity 222 nm ([3]; 20% TFE) | wavelength Minimum of CD profile ([3]; 20% TFE) [nm] | specificity of binding to ECMs [4] | binding to hyaluronic acid in specificity testing [5] | binding to hyaluronic acid with increasing concentrations of peptide (fluorescence intensity) ([6]; 0-10 mg/ml peptide, PBS pH 7.4, 37° C., HA coating 10 μg/cm^2, FIG. 3) | HA binding, overall assessment ([6]; summary and discussion statements) | binding result [7]
1 | LKTKIKIIVKTKSSAKLRSKLVNSHKI [Peptide 4, 8h-2 variant] | moderately | fibers that contain two striations (fibrils) | consistent nanofibers; also recorded: predominantly form fibers with striations and furthermore form a mesh network | 0.54 | −112 | −60.3 | 225 | 0.97 | −364 | −353 | 224 | lower specificity than 17x-3 | predominantly | increases dramatically | comparable binding; also recorded: HA specific and robust binders | –
2 | B1 | – | – | – | – | – | – | – | – | – | – | – | – | – | – | – | binds
3 | B2 | – | – | – | – | – | – | – | – | – | – | – | – | – | – | – | binds
